In test [1] the target is cynomolgus CD3 (cynomolgus monkey) (UniProt Q95LI5). Briefly: FACS titration on purified cynomolgus T cells.
Test [2] shares this target. The test can be described thus: cell-based or functional assay.
Test [3] has the same target. The test can be described thus: FACS titration of cynomolgus T cells.

Changes are numbered by the printed parent chain.

In general, EC50 refers to the midpoint of the concentration-response curve. Lower therefore signals higher potency in that assay.

B1: BSSTEAP2/CD3-004 (bispecific antibody, IgG4, V domains shown)
VH 1: QVQLVESGGGVVQPGRSLRLSCVASGFTISSYGMNWVRQAPGKGLEWVAVISYDGGNKYSVDSVKGRFTISRDNSKNTLYLQMNSLRAEDSAVYYCARGRYFDLWGRGTLVTVSS
VH 2: EVQLVESGGGLVQPGRSLRLSCAASGFTFADYTMHWVRQGPGTGLEWVSDIGWSGGSLGYADSVKGRFTISRDNAKNSLYLEMNNLRPEDTALYYCVKDKSGYGKFQYGLDVWGQGTTVTVSS
VL: DIQMTQSPSTLSASVGDRVTITCRASQSISSWLAWYQQKPGRAPNLLISKASSLKSGVPSRFSGSGSGTEFTLTVSSLQPDDFATYYCQQYYSYSYTFGQGTKLEIK
For the molecule B1, in test [1], the EC50 was 1.99 nM.

B2: BSSTEAP2/CD3-001 (bispecific antibody, IgG4, V domains shown)
VH 1: QVQLQQSGPGLVKPSQTLSLTCAISGDSVSSNRAAWNWIRQSPSRGLQWLGRTYYRSKWYNDYAVSLRSRITINPVTSKNQVALHMNSVTPEDTAVYYCARAGIVVVPGPETFYYYDHGLDVWGQGTTVTVSS
VH 2: EVQLVESGGGLVQPGRSLRLSCAASGFTFDDYSMHWVRQAPGKGLEWVSGISWNSGSKGYADSVKGRFTISRDNAKNSLYLQMNSLRAEDTALYYCAKYGSGYGKFYHYGLDVWGQGTTVTVSS
VL: DIQMTQSPSSLSASVGDRVTITCRASQSIRSYLNWYQQKPGKAPELLIHAASSLQSGVPSRFSGSGSGTDFTLTISSLQPEDFASYYCQQSYSAPPITFGQGTRLEIK
Regarding B2, the Cyno PBMC Proliferation [M] (donor) in test [2] stood at 4.59e-12 M. Moreover, in test [1], the 50% effective concentration (EC50) was found to be 7.27 nM.

B3: BSSTEAP2/CD3-006 (bispecific antibody, V domains shown)
VH 1: B2 VH 1
VH 2: B2 VH 2 with A23V, G59D
VL: B2 VL
Regarding B3, the Cyno PBMC Proliferation [M] (donor) in test [2] was found to be 1.53e-11 M. The same molecule came in with a half-maximal effective concentration (EC50) in test [1] of 7.99 nM.

B4: CD3-VH-P (antibody, V domains shown)
VH: B2 VH 2 with A23V, G59D
VL: DIQMTQSPSSLSASVGDSVTITCRASQSINNYLNWYQQKPGKAPKLLIYTASSLLSGVPSRFSGSGSGTDFTLTISGLHPEDFATYFCQQSFSTPPITFGQGTRLDIK
B4 displayed an EC50 in test [3] of 1 to 40 nM.

B5: BSSTEAP2/CD3-007 (bispecific antibody, V domains shown)
VH 1: B2 VH 1
VH 2: EVQLVESGGGLVQPGRSLRLSCAASGFTFADYTMHWVRQAPGKGLEWVSDISWNSGSIAYADSVKGRFTISRDNAKNSLYLQMNSLRTEDTAFYYCAKDSRGYGHYKYLGLDVWGQGTTVTVSS
VL: B2 VL
In turn, B5 came in with a 50% effective concentration (EC50) in test [1] of 17.3 nM. This counts as double-digit nanomolar.

Source of the values: patent US20200376136A1.
